Source: patent EP4477673A1, “IMMUNOCONJUGATE AND USE THEREOF” (priority 2022, dated 2023)
Where a chain is given by its changes, count along the chain named. In names and notes the source's numbering stands. Values belong to the binder of their own block, whether it stands above or below them.

Legend:
human PD-1 = human PD-1 (human, UniProt Q15116 25-288); test: cell-based or functional assay
[1] = target: Human PD-1 antigen protein (Sino Biological, 10377-H08H) (human, UniProt Q15116 25-167); test: SPR Biacore 8K, fusion protein captured by anti-human IgG (Fc), human PD-1 as analyte
Sequence of Human PD-1 antigen protein (Sino Biological, 10377-H08H) (Q15116 25-167 limits assumed): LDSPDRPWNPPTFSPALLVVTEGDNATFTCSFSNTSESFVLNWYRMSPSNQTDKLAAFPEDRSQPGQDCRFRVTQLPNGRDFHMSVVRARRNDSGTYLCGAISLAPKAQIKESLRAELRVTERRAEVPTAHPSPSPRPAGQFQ

Sequence of human PD-1 (Q15116 25-288 limits assumed): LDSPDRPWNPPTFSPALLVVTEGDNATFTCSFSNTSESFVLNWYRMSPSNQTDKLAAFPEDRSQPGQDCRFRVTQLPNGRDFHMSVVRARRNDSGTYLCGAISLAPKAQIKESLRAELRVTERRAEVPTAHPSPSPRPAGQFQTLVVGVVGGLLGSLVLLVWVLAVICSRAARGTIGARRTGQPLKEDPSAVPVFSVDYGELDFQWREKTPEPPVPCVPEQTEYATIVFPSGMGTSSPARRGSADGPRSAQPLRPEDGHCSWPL

M07e-hPD-1 cell proliferation ratio (%) at 0.0001 nM (human PD-1): 7.5%
M07e-hPD-1 cell proliferation ratio (%) at 0.001 nM (human PD-1): 4.9%
M07e-hPD-1 cell proliferation ratio (%) at 0.01 nM (human PD-1): 4.9%
M07e-hPD-1 cell proliferation ratio (%) at 0.1 nM (human PD-1): 9.3%
M07e-hPD-1 cell proliferation ratio (%) at 1 nM (human PD-1): 21.1%
M07e-hPD-1 cell proliferation ratio (%) at 10 nM (human PD-1): 31.9%
M07e-hPD-1 cell proliferation ratio (%) at 100 nM (human PD-1): 39.5%
M07e-hPD-1 cell proliferation ratio (%) at 1000 nM (human PD-1): 60%
Kd [1]: 74.3 nM
koff [1]: 0.0102 s⁻¹
kon [1]: 137000 M⁻¹ s⁻¹
B1: A-N88D-M27 (Fc fusion)
chain (part 1 of 2): EVQLVESGGGLVQPGGSLRLSCAASGLTFSSYSMSWYRQAPGKGRELVAIISGSGGITHYVDSVKGRFTISRDNAKNTLYLQMRSLRAEDTAVYYCRAVSDWQDYWGQGTQVTVSS
chain (part 2 of 2): GGGGSGGGGSGGGGSAPASSSTKKTQLQLEHLLLDLQMILQGISNYKNPKLTRMLTAKFYMPKKATELKHLQCLEEELKPLEEVLQGAQSKNFHLRPRDLISDINVIVLELKGSETTFMCEYADETATIVEFLNRWITFAQSIISTLT
chain: B1 chain (part 1 of 2)
notes: not shown: IgG1 hinge (C220S) + Fc Knob chain as in A-N88D; IgG1 hinge (C220S) + Fc Hole chain as in A-N88D

M07e-hPD-1 cell proliferation ratio (%) at 0.0001 nM (human PD-1): 3.7%
M07e-hPD-1 cell proliferation ratio (%) at 0.001 nM (human PD-1): 4.8%
M07e-hPD-1 cell proliferation ratio (%) at 0.01 nM (human PD-1): 9.3%
M07e-hPD-1 cell proliferation ratio (%) at 0.1 nM (human PD-1): 10.7%
M07e-hPD-1 cell proliferation ratio (%) at 1 nM (human PD-1): 23.2%
M07e-hPD-1 cell proliferation ratio (%) at 10 nM (human PD-1): 37%
M07e-hPD-1 cell proliferation ratio (%) at 100 nM (human PD-1): 43.1%
M07e-hPD-1 cell proliferation ratio (%) at 1000 nM (human PD-1): 54.4%
Kd [1]: 53.1 nM
koff [1]: 0.00948 s⁻¹
kon [1]: 179000 M⁻¹ s⁻¹
B2: A-N88D-M26 (Fc fusion)
chain (part 1 of 2): B1 chain (part 1 of 2) with Q103E
chain (part 2 of 2): B1 chain (part 2 of 2)
chain: B1 chain (part 1 of 2) with Q103E
notes: as for B1
